Laboratory results taken from ChEMBL document CHEMBL1123197, “(beta-Chloro-alpha-aminoethyl)phosphonic acids as inhibitors of alanine racemase and D-alanine:D-alanine ligase” (J Med Chem, 1986).

Tests used:
[1] = substrate: C[C@H](N)C(=O)O; test: Km value for Alanine racemase from Pseudomonas aeruginosa
[2] = substrate: NC(CCl)P(=O)(O)O; settings: Pseudomonas aeruginosa
Description: Km for Alanine racemase from Pseudomonas aeruginosa

B1: Alanine racemase, biosynthetic (Escherichia coli K-12), P0A6B4 (protein)
chain: MQAATVVINRRALRHNLQRLRELAPASKMVAVVKANAYGHGLLETARTLPDADAFGVARLEEALRLRAGGITKPVLLLEGFFDARDLPTISAQHFHTAVHNEEQLAALEEASLDEPVTVWMKLDTGMHRLGVRPEQAEAFYHRLTQCKNVRQPVNIVSHFARADEPKCGATEKQLAIFNTFCEGKPGQRSIAASGGILLWPQSHFDWVRPGIILYGVSPLEDRSTGADFGCQPVMSLTSSLIAVREHKAGEPVGYGGTWVSERDTRLGVVAMGYGDGYPRAAPSGTPVLVNGREVPIVGRVAMDMICVDLGPQAQDKAGDPVILWGEGLPVERIAEMTKVSAYELITRLTSRVAMKYVD
Km [1]: 14.2 mM
Km [2]: 8 mM
